According to publication PMC5216124, “Cell division orientation is coupled to cell–cell adhesion by the E-cadherin/LGN complex” (Nature Communications, 2017):

Molecular target: T1, LGN-TPR:S-tag (human, UniProt P81274 8-311)
T1 construct: LGN, human, NM_013296.4, TPR repeats, amino acids 8-311; also called LGN-TPR with C-terminal S-tag; not shown: S-tag, C-terminal, kept
T1 sequence (looked up): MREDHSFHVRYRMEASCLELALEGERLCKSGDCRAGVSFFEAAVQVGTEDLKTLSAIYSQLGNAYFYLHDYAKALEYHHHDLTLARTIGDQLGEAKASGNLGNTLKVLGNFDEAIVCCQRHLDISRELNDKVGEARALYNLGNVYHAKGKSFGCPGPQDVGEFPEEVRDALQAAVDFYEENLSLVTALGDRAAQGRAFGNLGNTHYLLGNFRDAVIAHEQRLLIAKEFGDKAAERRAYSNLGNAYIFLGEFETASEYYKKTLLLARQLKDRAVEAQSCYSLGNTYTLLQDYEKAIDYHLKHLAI
Experiment: pull-down; in vitro competition: E-cad-cyto/LGN-TPR:S-tag complex (GST cleaved off with TEV) held on S-protein agarose by the S-tag; 100 μg NuMA (1808-1988) added, 4 °C overnight; blotted for LGN and E-cadherin
Details: both partners purified

binding result: binds
B1: region of human NuMA containing the LGN-binding site (domain or fragment, UniProt Q14980-1 1808-1988, looked up)
chain: RRRTTQIINITMTKKLDVEEPDSANSSFYSTRSAPASQASLRATSSTQSLARLGSPDYGNSALLSLPGYRPTTRSSARRSQAGVSSGAPPGRNSFYMGTCQDEPEQLDDWNRIAELQQRNRVCPPHLKTCYPLESRPSLSLGTITDEEMKTGDPQETLRRASMQPIQIAEGTGITTRQQRK
notes: also called NuMA peptide; source: E. coli BL21 (DE3), purified (glutathione agarose, TEV cleavage, MonoQ)
